Results: US20230272029A1, “CO-AGONISTS AT GLP-1 AND GIP RECEPTORS SUITABLE FOR ORAL DELIVERY” (Novo Nordisk A/S, priority 2020, published 2023)
Starred links: 1 amine or outer side, 2 acyl side, 3 side chain; linkers in the order of their positions; H or OH if unused. Non-standard residues stand in square brackets, D forms with d. Groups on a side chain read outwards from the residue. No end group written: not given here. *: point of attachment. C18 diacid = O=C(O)CCCCCCCCCCCCCCCCC(=O)*; C16 diacid = O=C(O)CCCCCCCCCCCCCCC(=O)*; γGlu = O=C(O)[C@H](CCC(=O)[*:2])N[*:1]; εLys = N[C@@H](CCCCN[*:1])C(=O)[*:2]; AEEA = NCCOCCOCC(=O)O; Aib = CC(C)(N)C(=O)O

T1: human GIP receptor (human, UniProt P48546 22-466)
T1 sequence (looked up): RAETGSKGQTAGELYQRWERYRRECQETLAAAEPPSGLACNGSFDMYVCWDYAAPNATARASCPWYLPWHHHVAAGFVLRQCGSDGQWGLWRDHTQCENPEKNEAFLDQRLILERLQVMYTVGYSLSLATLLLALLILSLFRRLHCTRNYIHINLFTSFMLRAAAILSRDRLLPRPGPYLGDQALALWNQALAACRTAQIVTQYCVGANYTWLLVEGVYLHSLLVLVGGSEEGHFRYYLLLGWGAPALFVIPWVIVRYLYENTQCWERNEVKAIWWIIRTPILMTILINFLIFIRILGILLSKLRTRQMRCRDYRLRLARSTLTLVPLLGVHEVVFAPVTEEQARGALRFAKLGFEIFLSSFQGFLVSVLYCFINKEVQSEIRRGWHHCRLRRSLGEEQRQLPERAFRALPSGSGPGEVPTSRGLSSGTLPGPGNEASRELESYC


Key:
human GLP-1 receptor = human GLP-1 receptor (human, UniProt P43220 24-463); test: cell-based or functional assay
human GIP receptor = target: T1, human GIP receptor; test: cell-based or functional assay

Binder	hGLP-1R, CRE Luc 0% HSA EC50 (pM) (human GLP-1 receptor)	hGLP-1R, CRE Luc 1% HSA EC50 (pM) (human GLP-1 receptor)	hGIPR, CRE Luc 0% HSA EC50 (pM) (human GIP receptor)	hGIPR, CRE Luc 1% HSA EC50 (pM) (human GIP receptor)
Y[Aib]EGTFTSDYSILLEEQAAREFIEWLLAGGPSKGAPPPS-OH (not fully specified (residue 33)) [Compound No. 47]	2.1 pM	154 pM	3.1 pM	156 pM
Y[Aib]EGTFTSDYSIILEK([εLys-εLys-γGlu-C18 diacid])QAAREFINWLLAGGPSSGAPPPS-OH (N-terminus assumed; SMILES CC[C@H](C)[C@H](NC(=O)[C@H](Cc1ccccc1)NC(=O)[C@H](CCC(=O)O)NC(=O)[C@H](CCCNC(=N)N)NC(=O)[C@H](C)NC(=O)[C@H](C)NC(=O)[C@H](CCC(N)=O)NC(=O)[C@H](CCCCNC(=O)[C@@H](N)CCCCNC(=O)[C@@H](N)CCCCNC(=O)CC[C@H](NC(=O)CCCCCCCCCCCCCCCCC(=O)O)C(=O)O)NC(=O)[C@H](CCC(=O)O)NC(=O)[C@H](CC(C)C)NC(=O)[C@@H](NC(=O)[C@@H](NC(=O)[C@H](CO)NC(=O)[C@H](Cc1ccc(O)cc1)NC(=O)[C@H](CC(=O)O)NC(=O)[C@H](CO)NC(=O)[C@@H](NC(=O)[C@H](Cc1ccccc1)NC(=O)[C@@H](NC(=O)CNC(=O)[C@H](CCC(=O)O)NC(=O)C(C)(C)NC(=O)[C@@H](N)Cc1ccc(O)cc1)[C@@H](C)O)[C@@H](C)O)[C@@H](C)CC)[C@@H](C)CC)C(=O)N[C@@H](CC(N)=O)C(=O)N[C@@H](Cc1c[nH]c2ccccc12)C(=O)N[C@@H](CC(C)C)C(=O)N[C@@H](CC(C)C)C(=O)N[C@@H](C)C(=O)NCC(=O)NCC(=O)N1CCC[C@H]1C(=O)N[C@@H](CO)C(=O)N[C@@H](CO)C(=O)NCC(=O)N[C@@H](C)C(=O)N1CCC[C@H]1C(=O)N1CCC[C@H]1C(=O)N1CCC[C@H]1C(=O)N[C@@H](CO)C(=O)O) [Compound No. 34]	6 pM	186 pM	8.3 pM	213 pM
Y[Aib]EGTFTSDYSILLEEQAAREFIEWLLAGGPSK([AEEA-AEEA-γGlu-C18 diacid])GAPPPS-OH [Compound No. 45]	3.9 pM	1580 pM	3.8 pM	1220 pM
Y[Aib]EGTFTSDYSILLEK([AEEA-AEEA-γGlu-C18 diacid])QAAREFINWLLAGGPSSGAPPPS-OH [Compound No. 35]	3 pM	413 pM	5.2 pM	303 pM
Y[Aib]EGTFTSDYSILLEEQAAREFIEWLLAGGPSK([εLys-εLys-γGlu-C16 diacid])GAPPPS-OH [Compound No. 46]	1.5 pM	111 pM	1.8 pM	97 pM
Y[Aib]EGTVTSDYSILLEK([εLys-εLys-γGlu-C18 diacid])QAAREFINWLLAGGPSSGAPPPS-OH (N-terminus assumed; SMILES CC[C@H](C)[C@H](NC(=O)[C@H](Cc1ccccc1)NC(=O)[C@H](CCC(=O)O)NC(=O)[C@H](CCCNC(=N)N)NC(=O)[C@H](C)NC(=O)[C@H](C)NC(=O)[C@H](CCC(N)=O)NC(=O)[C@H](CCCCNC(=O)[C@@H](N)CCCCNC(=O)[C@@H](N)CCCCNC(=O)CC[C@H](NC(=O)CCCCCCCCCCCCCCCCC(=O)O)C(=O)O)NC(=O)[C@H](CCC(=O)O)NC(=O)[C@H](CC(C)C)NC(=O)[C@H](CC(C)C)NC(=O)[C@@H](NC(=O)[C@H](CO)NC(=O)[C@H](Cc1ccc(O)cc1)NC(=O)[C@H](CC(=O)O)NC(=O)[C@H](CO)NC(=O)[C@@H](NC(=O)[C@@H](NC(=O)[C@@H](NC(=O)CNC(=O)[C@H](CCC(=O)O)NC(=O)C(C)(C)NC(=O)[C@@H](N)Cc1ccc(O)cc1)[C@@H](C)O)C(C)C)[C@@H](C)O)[C@@H](C)CC)C(=O)N[C@@H](CC(N)=O)C(=O)N[C@@H](Cc1c[nH]c2ccccc12)C(=O)N[C@@H](CC(C)C)C(=O)N[C@@H](CC(C)C)C(=O)N[C@@H](C)C(=O)NCC(=O)NCC(=O)N1CCC[C@H]1C(=O)N[C@@H](CO)C(=O)N[C@@H](CO)C(=O)NCC(=O)N[C@@H](C)C(=O)N1CCC[C@H]1C(=O)N1CCC[C@H]1C(=O)N1CCC[C@H]1C(=O)N[C@@H](CO)C(=O)O) [Compound No. 33]	14.8 pM	361 pM	2.9 pM	103 pM
Y[Aib]EGTFTSDYSYYLEK([εLys-εLys-γGlu-C18 diacid])QAAQAFVNWLLAGGPSSGAPPPS-NH2 (N-terminus assumed; SMILES CC(C)C[C@H](NC(=O)[C@H](CC(C)C)NC(=O)[C@H](Cc1c[nH]c2ccccc12)NC(=O)[C@H](CC(N)=O)NC(=O)[C@@H](NC(=O)[C@H](Cc1ccccc1)NC(=O)[C@H](C)NC(=O)[C@H](CCC(N)=O)NC(=O)[C@H](C)NC(=O)[C@H](C)NC(=O)[C@H](CCC(N)=O)NC(=O)[C@H](CCCCNC(=O)[C@@H](N)CCCCNC(=O)[C@@H](N)CCCCNC(=O)CC[C@H](NC(=O)CCCCCCCCCCCCCCCCC(=O)O)C(=O)O)NC(=O)[C@H](CCC(=O)O)NC(=O)[C@H](CC(C)C)NC(=O)[C@H](Cc1ccc(O)cc1)NC(=O)[C@H](Cc1ccc(O)cc1)NC(=O)[C@H](CO)NC(=O)[C@H](Cc1ccc(O)cc1)NC(=O)[C@H](CC(=O)O)NC(=O)[C@H](CO)NC(=O)[C@@H](NC(=O)[C@H](Cc1ccccc1)NC(=O)[C@@H](NC(=O)CNC(=O)[C@H](CCC(=O)O)NC(=O)C(C)(C)NC(=O)[C@@H](N)Cc1ccc(O)cc1)[C@@H](C)O)[C@@H](C)O)C(C)C)C(=O)N[C@@H](C)C(=O)NCC(=O)NCC(=O)N1CCC[C@H]1C(=O)N[C@@H](CO)C(=O)N[C@@H](CO)C(=O)NCC(=O)N[C@@H](C)C(=O)N1CCC[C@H]1C(=O)N1CCC[C@H]1C(=O)N1CCC[C@H]1C(=O)N[C@@H](CO)C(N)=O) [Compound No. 4]	6.6 pM	484 pM	8.5 pM	294 pM
Y[Aib]EGTFTSDYSIILEK([AEEA-AEEA-γGlu-C18 diacid])QAAREFINWLLAGGPSSGAPPPS-OH (N-terminus assumed; SMILES CC[C@H](C)[C@H](NC(=O)[C@H](Cc1ccccc1)NC(=O)[C@H](CCC(=O)O)NC(=O)[C@H](CCCNC(=N)N)NC(=O)[C@H](C)NC(=O)[C@H](C)NC(=O)[C@H](CCC(N)=O)NC(=O)[C@H](CCCCNC(=O)COCCOCCNC(=O)COCCOCCNC(=O)CC[C@H](NC(=O)CCCCCCCCCCCCCCCCC(=O)O)C(=O)O)NC(=O)[C@H](CCC(=O)O)NC(=O)[C@H](CC(C)C)NC(=O)[C@@H](NC(=O)[C@@H](NC(=O)[C@H](CO)NC(=O)[C@H](Cc1ccc(O)cc1)NC(=O)[C@H](CC(=O)O)NC(=O)[C@H](CO)NC(=O)[C@@H](NC(=O)[C@H](Cc1ccccc1)NC(=O)[C@@H](NC(=O)CNC(=O)[C@H](CCC(=O)O)NC(=O)C(C)(C)NC(=O)[C@@H](N)Cc1ccc(O)cc1)[C@@H](C)O)[C@@H](C)O)[C@@H](C)CC)[C@@H](C)CC)C(=O)N[C@@H](CC(N)=O)C(=O)N[C@@H](Cc1c[nH]c2ccccc12)C(=O)N[C@@H](CC(C)C)C(=O)N[C@@H](CC(C)C)C(=O)N[C@@H](C)C(=O)NCC(=O)NCC(=O)N1CCC[C@H]1C(=O)N[C@@H](CO)C(=O)N[C@@H](CO)C(=O)NCC(=O)N[C@@H](C)C(=O)N1CCC[C@H]1C(=O)N1CCC[C@H]1C(=O)N1CCC[C@H]1C(=O)N[C@@H](CO)C(=O)O) [Compound No. 36]	4.7 pM	414 pM	5.5 pM	356 pM
